Assay results from patent US20230406922A1 (SIMCERE ZAIMING PHARMACEUTICAL, published 2023).

T1: human CD19, full length, on cells (human, UniProt P15391 20-556)
T1 construct: the endogenous CD19 of Raji cells is put under the same molecule (the cell type stands under assay); The entry holds the signal peptide; also called CHO-K1-human CD19; CHO-K1-human CD19-2C8
T1 sequence: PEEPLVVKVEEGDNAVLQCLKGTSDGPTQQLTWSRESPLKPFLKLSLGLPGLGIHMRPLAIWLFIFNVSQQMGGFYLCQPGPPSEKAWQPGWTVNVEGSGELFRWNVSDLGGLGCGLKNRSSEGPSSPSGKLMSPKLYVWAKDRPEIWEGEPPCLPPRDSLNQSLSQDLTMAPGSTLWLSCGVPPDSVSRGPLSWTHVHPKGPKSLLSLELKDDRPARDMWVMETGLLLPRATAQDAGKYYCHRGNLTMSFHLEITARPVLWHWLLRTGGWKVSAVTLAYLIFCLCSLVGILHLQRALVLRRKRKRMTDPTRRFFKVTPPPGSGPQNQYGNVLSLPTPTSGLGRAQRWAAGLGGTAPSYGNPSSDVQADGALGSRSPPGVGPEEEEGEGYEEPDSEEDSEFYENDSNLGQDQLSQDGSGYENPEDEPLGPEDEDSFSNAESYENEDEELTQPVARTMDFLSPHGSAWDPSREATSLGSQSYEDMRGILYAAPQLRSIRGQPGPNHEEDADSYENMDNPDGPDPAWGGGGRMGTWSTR

T2: human CD19-his protein (human, UniProt P15391 20-291)
T2 construct: also called recombinant human CD19-His; human CD19 protein; not shown: His tag
T2 sequence (looked up): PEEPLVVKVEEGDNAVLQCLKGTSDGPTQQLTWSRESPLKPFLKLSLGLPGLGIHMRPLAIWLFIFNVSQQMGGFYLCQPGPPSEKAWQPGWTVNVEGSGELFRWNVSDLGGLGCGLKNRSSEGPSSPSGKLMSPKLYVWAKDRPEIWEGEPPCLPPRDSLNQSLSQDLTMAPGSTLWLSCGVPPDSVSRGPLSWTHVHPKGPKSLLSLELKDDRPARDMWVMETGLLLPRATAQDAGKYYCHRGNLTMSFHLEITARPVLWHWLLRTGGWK


Assays:
[1] = molecular target: T1, human CD19, full length, on cells; assay: FACS on Raji cells
Description: (§1) The desired cells were expanded to a logarithmic growth phase in a T-75 cell culture flask. For adherent cells CHO-K1, the culture medium was removed by pipetting, and the cells were washed twice with a PBS buffer, digested with trypsin, and washed twice with a PBS buffer again after the digestion was stopped. For suspension cells Raji, the medium supernatant was discarded by direct centrifugation, and the cell pellet was washed twice with PBS. After cell counting of the cells obtained in the last step, the cell pellet was resuspended to 2×10⁶ cells/mL with a blocking solution [PBS+2% (w/w) BSA] and added into a 96-well FACS reaction plate at 50 μL/well. […] After the plate was centrifuged and washed 5 times with a PBS buffer, the results were assayed and analyzed by FACS (FACS Canto™, purchased from BD Biosciences). Data analysis was performed by software (CellQuest) to obtain the mean fluorescence intensity (MFI) of the cells. Then, analysis was performed by software (GraphPad Prism8), data were fitted, and EC₅₀ values were calculated.

human CD19-his protein [2] = molecular target: T2, human CD19-his protein; assay: ELISA, human CD19-his coated at 4 ug/mL
Description: A human CD19-his protein (purchased from ACROBiosystems, Cat. No. CD9-H52H2) was diluted with PBS to make a final concentration of 4 μg/mL, and then added into a 96-well ELISA plate at 100 μL/well. The plate was sealed with a plastic film and incubated at 4° C. overnight, wash twice with PBS the next day, and blocked at room temperature for 2 h by adding a blocking solution [PBS +2% (w/w) BSA]. […] After incubation for 2 h at 37° C., the plate was washed 3 times with PBS. […] After incubation for 1 h at 37° C., the plate was washed 5 times with PBS. A TMB substrate was added at 50 μL/well. After incubation at room temperature for 10 min, a stop solution (1.0 N HCl) was added at 50 μL/well. The OD450 nm values were read on an ELISA microplate reader (Multimode Plate Reader, EnSight, purchased from Perkin Elmer). […] The negative control antibody mIgG1 was an antibody against hen egg lysozyme, anti-hel-mIgG1 (purchased from Biointron, Cat. No. B118301), and the data in the table were OD450 nm values.

[3] = molecular target: T1, human CD19, full length, on cells; assay: FACS on CHO-K1-human CD19 cells
Description: as §1

human CD19-his protein [4] = molecular target: T2, human CD19-his protein; assay: SPR (Biacore), antibody captured on Protein A chip, human CD19-His as analyte, 1:1 Langmuir model
Description: The anti-human CD19 antibody was captured using a Protein A chip (GE Healthcare; 29-127-558). The sample and running buffer was HBS-EP+(10 mM HEPES, 150 mM NaCl, 3 mM EDTA, 0.05% surfactant P20) (GE Healthcare; BR-1006-69). The flow cell was set at 25° C. The sample block was set at 16° C. Both were pretreated with the running buffer. In each cycle, first, the test antibody was captured using the Protein A chip, and then a single concentration of CD19 antigen protein was injected. The association and dissociation processes of the antibody with the antigen protein were recorded, and finally, the chip was regenerated using Glycine pH 1.5 (GE Healthcare; BR-1003-54). The association was determined by injecting different concentrations of recombinant human CD19-His in the solution and maintaining for 240 s, wherein the flow rate was 30 μL/min, and the protein was diluted in a 1:1 dilution ratio from 200 nM (see detailed results for actual concentrations tested) to obtain 5 concentrations in total. The dissociation phase was monitored for up to 600 s and triggered by switching from the sample solution to the running buffer. The surface was regenerated by washing with 10 mM glycine solution (pH 1.5) at a flow rate of 30 μL/min for 30 s. The difference in bulk refractive index was corrected by subtracting the responses obtained from the goat anti-human Fc surface. Blank injections were also subtracted (double reference). To calculate the apparent KD and other kinetic parameters, the Langmuir 1:1 model was used.

EC50 [1] [nM]	maximum mean fluorescence intensity [1] [MFI]	OD450 at 0.0001 nM (human CD19-his protein [2]) [OD450]	OD450 at 0.001 nM (human CD19-his protein [2]) [OD450]	OD450 at 0.01 nM (human CD19-his protein [2]) [OD450]	OD450 at 0.10 nM (human CD19-his protein [2]) [OD450]	OD450 at 1.00 nM (human CD19-his protein [2]) [OD450]	OD450 at 10.00 nM (human CD19-his protein [2]) [OD450]	OD450 at 100.00 nM (human CD19-his protein [2]) [OD450]	EC50 [3] [nM]	maximum mean fluorescence intensity [3] [MFI]	Kd (human CD19-his protein [4]) [nM]	koff (human CD19-his protein [4]) [s⁻¹]	kon (human CD19-his protein [4]) [M⁻¹ s⁻¹]	Binder
0.32	8500	0.11	0.15	0.38	1.54	2.37	2.38	2.59	1.12	31500	0.346	3.36e-05	97200	FMC63.26-mIgG1 (antibody, V domains shown, Humanized FMC63; also called FMC63-L2H6) VH: EVTLKESGPVLVKPTETLTLTCTVSGFSLPDYGVSWIRQPPGKALEWLAVIWGSETTYYNSALKSRLTISKDTSKSQVVLTMTNMDPVDTATYYCAKHYYYGGSYAMDYWGQGTTVTVSS VL: DIQMTQSPSSLSASVGDRVTITCRASQDISKYLNWYQQKPGGAVKLLIYHTSRLHSGVPSRFSGSGSGTDYTLTISSLQPEDFATYYCQQGNTLPYTFGGGTKVEIKR
0.3	7840	0.11	0.16	0.39	1.52	2.29	2.32	2.64	1.33	29400	1.81	0.000152	84200	FMC63.27-mIgG1 (antibody, V domains shown, Humanized FMC63; also called FMC63-L2H7) VH: EVTLKESGPVLVKPTETLTLTCTVSGVSLPDYGVSWIRQPPGKALEWLAVIWGSETTYYNSALKSRLTISKDNSKSQVVLTMTNMDPVDTATYYCAKHYYYGGSYAMDYWGQGTTVTVSS VL: DIQMTQSPSSLSASVGDRVTITCRASQDISKYLNWYQQKPGGAVKLLIYHTSRLHSGVPSRFSGSGSGTDYTLTISSLQPEDFATYYCQQGNTLPYTFGGGTKVEIKR
0.33	9170	0.13	0.17	0.51	1.71	2.44	2.46	2.75	0.79	33100	0.0195	1.8e-06	92400	FMC63.25-mIgG1 (antibody, V domains shown, Humanized FMC63; also called FMC63-L2H5) VH: EVTLKESGPVLVKPTETLTLTCTVSGFSLSDYGVSWIRQPPGKALEWLAVIWGSETTYYNSALKSRLTISKDTSKSQVVLTMTNMDPVDTATYYCAKHYYYGGSYAMDYWGQGTTVTVSS VL: DIQMTQSPSSLSASVGDRVTITCRASQDISKYLNWYQQKPGGAVKLLIYHTSRLHSGVPSRFSGSGSGTDYTLTISSLQPEDFATYYCQQGNTLPYTFGGGTKVEIKR
